Among the data in the Human Domainome abundance scans (Beltran et al. 2025) are abundance fitness values, retold here.

± gives the uncertainty stated by the source.

A short description of this data set: abundance fitness (aPCA) (normalised: wild type 0, dead -1); higher = more abundant; growth selection in yeast, the domain comes from the species named. As to conditions: Saccharomyces cerevisiae (strain ATCC 204508 / S288c).
In the case of “E3 ubiquitin-protein ligase RSP5 Q365S, P39940”, the abundance fitness was 0.038 ± 0.062. Regarding “E3 ubiquitin-protein ligase RSP5 Q365V, P39940”, the abundance fitness was -0.014 ± 0.045. As to “E3 ubiquitin-protein ligase RSP5 Q365W, P39940”, the abundance fitness amounted to 0.051 ± 0.08. With “E3 ubiquitin-protein ligase RSP5 Q365Y, P39940”, the abundance fitness was -0.004 ± 0.1. Consider “E3 ubiquitin-protein ligase RSP5 Q366A, P39940”, for which the abundance fitness worked out at 0.047 ± 0.13. Regarding “E3 ubiquitin-protein ligase RSP5 Q366C, P39940”, the abundance fitness is -0.572 ± 0.41. On to “E3 ubiquitin-protein ligase RSP5 Q366G, P39940”, for which the abundance fitness was found to be 0.131 ± 0.064. On to “E3 ubiquitin-protein ligase RSP5 Q366H, P39940”, for which the abundance fitness is -0.304 ± 0.19. In turn, “E3 ubiquitin-protein ligase RSP5 Q366L, P39940” showed an abundance fitness of 0.24 ± 0.11. With “E3 ubiquitin-protein ligase RSP5 Q366R, P39940”, the abundance fitness stood at 0.117 ± 0.053. On to “E3 ubiquitin-protein ligase RSP5 Q366S, P39940”, for which the abundance fitness was -0.008 ± 0.077. In the case of “E3 ubiquitin-protein ligase RSP5 Q366T, P39940”, the abundance fitness was found to be 0.054 ± 0.078. “E3 ubiquitin-protein ligase RSP5 Q366V, P39940” registered an abundance fitness of 0.023 ± 0.11. With “E3 ubiquitin-protein ligase RSP5 Q366W, P39940” the figure was -0.001 ± 0.061; with “E3 ubiquitin-protein ligase RSP5 Q366Y, P39940”, 0.307 ± 0.21; with “E3 ubiquitin-protein ligase RSP5 R340A, P39940”, 0.018 ± 0.047. Then “E3 ubiquitin-protein ligase RSP5 R340C, P39940”, with 0.064 ± 0.059; and “E3 ubiquitin-protein ligase RSP5 R340D, P39940”, with -0.256 ± 0.074. As for “E3 ubiquitin-protein ligase RSP5 R340E, P39940”, the abundance fitness is -0.01 ± 0.063.

As for “E3 ubiquitin-protein ligase RSP5 R340F, P39940”, the abundance fitness was -0.155 ± 0.16. For “E3 ubiquitin-protein ligase RSP5 R340H, P39940”, the abundance fitness is -0.206 ± 0.22. Then “E3 ubiquitin-protein ligase RSP5 R340I, P39940”, with 0.002 ± 0.087. “E3 ubiquitin-protein ligase RSP5 R340K, P39940” yielded an abundance fitness of 0.133 ± 0.081. Regarding “E3 ubiquitin-protein ligase RSP5 R340L, P39940”, the abundance fitness was 0.078 ± 0.055. As to “E3 ubiquitin-protein ligase RSP5 R340M, P39940”, the abundance fitness amounted to 0.052 ± 0.055.

Regarding “E3 ubiquitin-protein ligase RSP5 R340N, P39940”, the abundance fitness was -0.089 ± 0.08.

On to “E3 ubiquitin-protein ligase RSP5 R340P, P39940”, for which the abundance fitness was -1 ± 0.063. Then “E3 ubiquitin-protein ligase RSP5 R340Q, P39940”, with 0.001 ± 0.054; and “E3 ubiquitin-protein ligase RSP5 R340S, P39940”, with -0.039 ± 0.057. Turning to “E3 ubiquitin-protein ligase RSP5 R340T, P39940”, the abundance fitness is -0.108 ± 0.062. The substance “E3 ubiquitin-protein ligase RSP5 R340V, P39940” came in with an abundance fitness of 0.022 ± 0.049. For “E3 ubiquitin-protein ligase RSP5 R340W, P39940”, the abundance fitness was -0.088 ± 0.054. In the case of “E3 ubiquitin-protein ligase RSP5 R346A, P39940”, the abundance fitness is 0.121 ± 0.05.

“E3 ubiquitin-protein ligase RSP5 R346C, P39940” showed an abundance fitness of 0.095 ± 0.069. Then “E3 ubiquitin-protein ligase RSP5 R346D, P39940”, with 0.307 ± 0.057; and “E3 ubiquitin-protein ligase RSP5 R346E, P39940”, with 0.414 ± 0.06.
